Laboratory results published in publication PMC4850456, “Phenylbutazone induces expression of MBNL1 and suppresses formation of MBNL1-CUG RNA foci in a mouse model of myotonic dystrophy”.

Assays:
GST-MBNL1 (1-260) = target: T1, GST-MBNL1 (1-260) (UniProt Q9NR56 1-260); test: EMSA; no PBZ; 10 mM Tris-HCl pH 7.5, 50 mM KCl, 1 mM DTT, room temperature 30 min, 20 ul; 6 ug protein, RNA 2.5 pmol/ul; then PBZ 15 min at room temperature; settings: protein: recombinant; tags: GST (N-terminal fusion); label: 5'-biotin
T1 sequence: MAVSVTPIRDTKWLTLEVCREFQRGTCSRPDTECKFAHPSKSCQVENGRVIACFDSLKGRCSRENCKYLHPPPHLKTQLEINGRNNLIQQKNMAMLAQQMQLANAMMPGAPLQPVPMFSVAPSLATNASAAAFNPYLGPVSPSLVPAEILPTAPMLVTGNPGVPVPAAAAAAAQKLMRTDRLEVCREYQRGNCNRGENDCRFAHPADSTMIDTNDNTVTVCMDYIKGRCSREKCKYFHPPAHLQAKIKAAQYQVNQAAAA

GST-PTBP1 = GST-PTBP1 (UniProt P26599 1-557); test: as above; settings: protein: recombinant; tags: GST (pGEX-6P-1); label: 5'-biotin
Sequence of GST-PTBP1 (P26599 whole entry): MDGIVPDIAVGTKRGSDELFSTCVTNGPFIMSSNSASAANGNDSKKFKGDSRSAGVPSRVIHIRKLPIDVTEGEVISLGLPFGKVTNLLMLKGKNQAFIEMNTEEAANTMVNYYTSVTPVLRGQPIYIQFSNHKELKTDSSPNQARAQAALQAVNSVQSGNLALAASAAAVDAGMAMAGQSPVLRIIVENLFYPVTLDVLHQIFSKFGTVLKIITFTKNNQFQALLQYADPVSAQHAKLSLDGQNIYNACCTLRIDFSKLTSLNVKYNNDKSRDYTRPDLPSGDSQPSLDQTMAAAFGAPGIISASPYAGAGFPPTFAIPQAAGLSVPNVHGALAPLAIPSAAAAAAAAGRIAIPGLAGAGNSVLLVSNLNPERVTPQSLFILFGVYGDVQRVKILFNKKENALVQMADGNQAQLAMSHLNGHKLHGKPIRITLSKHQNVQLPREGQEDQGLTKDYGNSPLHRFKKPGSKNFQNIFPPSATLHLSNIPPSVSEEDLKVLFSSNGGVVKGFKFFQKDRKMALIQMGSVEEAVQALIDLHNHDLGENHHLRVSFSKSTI

GCCUGCUGCUGCUGCUGCUGCUGCUGCUGCUGGC (structured_RNA) [CUG repeat RNA probe]: binds (GST-MBNL1 (1-260)).

UUUCUCCUUUUCUGUGGGUGGACAGGGUGACAUGGUA (ssRNA) [CHRNA1 polypyrimidine tract RNA probe]: binds (GST-PTBP1).
